The source of these data is US20060264615A1 (MAXYGEN, published 2006).

Sequences and labels used below:
B1: wild-type human p35 polypeptide (ligand)
chain: RNLPVATPDPGMFPCLHHSQNLLRAVSNMLQKARQTLEFYPCTSEEIDHEDITKDKTSTVEACLPLELTKNESCLNSRETSFITNGSCLASRKTSFMMALCLSSIYEDLKMYQVEFKTMNAKLLMDPKRQIFLDQNMLAVIDELMQALNFNSETVPQKSSLEEPDFYKTKIKLCILLHAFRIRAVTIDRVTSYLNAS
notes: Secreted from COS-7 or 293 cells co-transfected with a p40 nucleic acid; also called wt-p35

The target in test [1] is T1, wild-type human p40 polypeptide (human, UniProt P29460 23-328).
T1 construct: Secreted from COS-7 or 293 cells co-transfected with a p35 nucleic acid; also called wt-p40
T1 sequence: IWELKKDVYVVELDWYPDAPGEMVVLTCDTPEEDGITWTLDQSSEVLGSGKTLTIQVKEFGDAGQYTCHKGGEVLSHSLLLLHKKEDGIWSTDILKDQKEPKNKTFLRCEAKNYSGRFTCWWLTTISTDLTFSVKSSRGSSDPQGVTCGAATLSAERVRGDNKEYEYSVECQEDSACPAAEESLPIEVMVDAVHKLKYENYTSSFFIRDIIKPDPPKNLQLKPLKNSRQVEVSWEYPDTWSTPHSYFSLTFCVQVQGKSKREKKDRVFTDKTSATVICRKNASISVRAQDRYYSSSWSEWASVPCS
Nature of the test: immunoblot with anti-p35 mAB of COS-7 culture medium; ~70 kDa p40/p35 heterodimer band, control (FIG. 7). Background: In western blotting, separated proteins are transferred to a membrane and probed.

Test [2] has as its target B1. Nature of the test: immunoblot with anti-p35 mAB of COS-7 culture medium; ~70 kDa p40/p35 heterodimer band (FIG. 7).
Test [3] deals with T2, modified p35 polypeptide R2-571 with C-terminal EHtag.
T2 construct: Recombinant (shuffled) p35 variant with the EHtag fused to its C-terminus; also called R2-571-EHtag
T2 chain: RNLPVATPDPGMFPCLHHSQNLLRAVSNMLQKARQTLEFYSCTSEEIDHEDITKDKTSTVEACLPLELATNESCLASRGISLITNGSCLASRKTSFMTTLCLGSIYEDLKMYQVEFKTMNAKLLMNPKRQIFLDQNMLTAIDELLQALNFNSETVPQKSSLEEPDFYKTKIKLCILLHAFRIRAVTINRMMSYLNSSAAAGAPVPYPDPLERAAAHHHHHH
Nature of the test: Western blot with anti-E tag mAB of heterodimer purified on an anti-E affinity column through the p35 EHtag (FIG. 14). An excerpt:
(§1) Co-expressing in mammalian cells a modified p40 nucleic acid of the invention plus a modified p35 nucleic acid of the invention produces a substantially more homogenous heterodimeric protein than the heterodimeric protein produced by co-expressing a wt-p40 nucleic acid and a wt-p35 nucleic acid. […] Both the modified p35 nucleic acid and the wt-p35 nucleic acid also comprised a C-terminal EHtag coding sequence.

In test [4] the target is T1, wild-type human p40 polypeptide. The description is as above.
Description: as §1

Take B1: the binding result in test [1] is given as “binds”.

B2: modified p40 polypeptide A16-94 (ligand)
chain: IWELKKDVYVVELDWYPDAPGEMVVLACDTPEEDGITWTSDQSSEVLGTGKTLTIHVKEFGDAGQYTCHKGGTVLSQSLLLLHKKEDGIWSTDILKDQKEPKNKSFLKCEAKNYSGRFTCWWLTAISTDLKFTVKSSRGSTDPRGVTCGTATLSEDLGEYKKYRVECQEGSACPAAEESLPIEVVLEAVHKLKYENYTSSFFIRDIIKPDPPKNLQLRPLKNSRHVEVSWEYPDTWSAPHSYFSLTFGVQVQGRNKREDRLFMDQTSAKVVCHKDAKIRVQARDRYYSSSWSEWASVSLQSV
With B2, the binding result in test [2] is recorded as “binds”.

B3: modified p40 polypeptide A3-48 (ligand)
chain: IWELEKNVYVVELDWYPDAPGEMVVLACDTPEEDGITWTSDQSSEVLGTGKTLTIHVKEFGDAGQYTCHKGGKVLSRSLLLLHKKEDGIWSTDILKDQKEPKNKSFLKCEAKNYSGRFTCWWLTTISTDLTFSVKSSRGSTDPHGVTCGTATLSEDLGEYKKYRVECQEGSACPAAEESLPIEVVLEAVHKLKYENYTSSFFIRDIIKPDPPKNLQLRPLKNSRQVEVNWEYPDTWSTPHSYFSLTFCVQVQGRNKREKKLFMDQTSAKVTCHKDAKIRVQARDRYYSSSWSDWASVSCG
With B3, the binding result in test [2] is listed as “binds”.

B4: modified p40 polypeptide C2-22 (ligand)
chain: IWELKKDVYVVELDWYPNAPGETVVLTCDTPEEDGITWTSDQSSEVLGTGKTLTIHVKEFGDAGQYTCRKGGEALSRSLLLLHKKEDGIWSTDILKDQKEPKNKSFLKCEAKNYSGRFTCWWLTTISTDLKFSVKSSRGSTDPRGVTCGTATLSEDLGEYKKYRVECQEGSACPAAEESLPIEVVLEAVHKLKYENYTSSFFIRDIIKPDPPKNLQLKPLKNSRHVEVSWGYPDTWSTPHSYFSLTFCIQVQGKSKREKKDRIFTDKTSATVICRKNAKIRVQARDRYYSSFWSEWASVSCS
notes: Recombinant (shuffled) p40 variant; the mature region is stated as residues 23-324; also called p40C2-22
Turning to B4, the binding result in test [3] and in test [2] was “binds” in each case.

B5: modified p40 polypeptide B2-52 (ligand)
chain: IWELEKNVYVVELDWYPDAPGEMVVLACDTPEEDGITWTSDQSSGVLGTGKTLTIHVKEFGDAGQYTCRKGGAVLSQSLLLLHKKEDGIWSTDILKDQKEPKAKSFLKCEAKDYSGHFTCWWLTTISTDLKFSVKSSRGSSDPQGVTCGAVTLSAERVSMDHREYNKYTVECQEGSACPSAEESLPIEVVVDAIHKLKYENYTSSFFIRDIIKPDPPKNLQLRPLKNSRQVEVNWEYPDTWSTPHSYFSLTFCVQVQGKNKREKKLFMDQTSAKVTCHKDAKIRVQARDRYYSSSWSEWASVPCS
On to B5, for which, in test [2], the binding result is “binds”.

B6: wild-type human p35 polypeptide with C-terminal EHtag (ligand)
chain: RNLPVATPDPGMFPCLHHSQNLLRAVSNMLQKARQTLEFYPCTSEEIDHEDITKDKTSTVEACLPLELTKNESCLNSRETSFITNGSCLASRKTSFMMALCLSSIYEDLKMYQVEFKTMNAKLLMDPKRQIFLDQNMLAVIDELMQALNFNSETVPQKSSLEEPDFYKTKIKLCILLHAFRIRAVTIDRVTSYLNASAAAGAPVPYPDPLERAAAHHHHHH
notes: wt-p35 with the EHtag fused to its C-terminus; also called wt-p35-EHtag
Consider B6, for which the binding result in test [4] was “binds”.

B7: modified p40 polypeptide B1-81 (ligand)
chain: IWELEKNVYVVELDWYPDAPGETVVLACDTPEEDGITWTSDQSSEVLGTGKTLTIHVKEFGDAGQYTCRKGGAVLSQSLLLLHKKEDGIWSTDILKDQKKPKNKIFLKCEAKNYSGRFTCWWLTAISTDLKFTVKSSRGSSDPQGVTCGAVTLSAERVSMDHREYNKYTVECQEGSACPSAEESLPIEVVVDAIHKLKYENYTSRFFIRDIIKPDPPKNLQLRPLKNSRHVEISWEYPDTWSTPHSYFSLTFCVQVQGKNKREKKLFMDQTSAKVTCHKDAKIRVQARDRYHSSSWSEWASVPCS
Turning to B7, the binding result in test [2] is recorded as “binds”.

B8: modified p40 polypeptide B8-96 (ligand)
chain: IWELEKNVYVVELDWYPDAPGEMVVLACDTPEEDGITWTSDQSSEVLGTGKTLTIHVKEFGDAGQYTCRKGGAVLSQSLLLLHKKEDGIWSTDILKDQKEPKNKSFLKCEAKNYSGRFTCWWLTTISTDLKFSVKSSRGSSDPRGVTCGAALLSAEKVSLEHREYKKYRVECQEGSACPAAEESLPIEVVLEAVHKLKYENYTSSFFIRDIIKPDPPKNLQLRPLKNSRQVEVNWEYPDTWSTPHSYFSLTFCVQVQGKNKREKKLFMDQTSAKVTCHKDAKIRVQARDRYYSSSWSEWASVPCS
For B8, the binding result in test [2] was “binds”.
